For assay [1], the system named is VEGFR2. The assay is described as follows: VEGFR2 phosphorylation at Tyr1175 and total VEGFR2 in HUVECs, western blot. Conditions: 15 min, protein 1 μM. It is filed as cell-based. As to the method:
(§1) For the different treatment conditions HUVECs were seeded on 8 well dishes (LabTek chamber slides, immunofluorescence) or 6 well dishes (western blot) and left for 2 to 3 days until the culture was confluent. After a 4 h starvation of the cells in EBM-2 medium (Lonza, Switzerland), the cells were treated with Nogo-A Delta 20 (1 μM), Nogo-A Delta 20 (1 μM) and VEGF-A ([…]), Nogo-A Delta 21 (1 μM), Nogo-A Delta 21 (1 μM) and VEGF ([…]), or VEGF-A alone ([…]) in EBM-2 medium, respectively. The cells were either fixed in 4% formaldehyde for 15 min at room temperature or lysed in RIPA buffer. After fixation, HUVECs were stained with anti-phosphoVEGFR2 antibody (pTyr1175, #2478, Cell Signaling), F-actin (phalloidin Alexa Fluor 633, Molecular Probes) and DAPI. The same antibodies were used to detect VEGFR2 and phosphoVEGFR2 in western blot.
For orientation: In western blotting, separated proteins are transferred to a membrane and probed.

For another assay, the system named is GBM MVEC filopodia. Kind of assay: Peak traction forces of filopodia on nanopillars, soluble Nogo-A proteins. Format: cell-based, human. Conditions: soluble protein 1 μM. The protocol: (§2) For time-lapse- and force generation experiments, Vybrant/Dil (Invitrogen, 1:200)-labeled GBM MVEC (10^4 cells ml^−1) were added onto the nanopillar structures. The imaging process was started 1 h after seeding GBM MVEC on nanopillars. To calculate the traction force exerted by GBM MVEC on the nanopillar surface, the deflection of the nanopillar tip was imaged with confocal microscopy using a Leica confocal microscope SP5 with a63x, oil immersion, NA1.43 objective.
(§3) During image acquisition, GBM MVEC were kept at 37° C. and 10% CO2. Following laser wavelengths were used to acquire images of nanopillar arrays and Di-labeled cells: 488 nm (nanopillar structures) and 546 nm (Dil).
(§4) To quantitatively address the acute effects of soluble Nogo-A proteins on GBM MVEC retraction, Dil-labeled endothelial cells on nanopillars coated with 25 μg*ml^−1 human Fibronectin were treated 30 min after cell seeding with soluble Nogo-A Delta 20 and Nogo-A Delta 21 at 1 μM. Single GBM MVEC were then imaged for a total time of 1.5 h, with a scanning ratio of 30 s per frame. The nanopillar displacements were recorded as sequence images when the GBM MVEC applied forces on the nanopillar surface. For each condition, at least three individual GBM MVEC were analyzed. To address the role of Nogo-A receptors, endothelial cells were cultured for 30 min before incubating the cells for another 30 min with the pharmacological blocker of S1PR2 (JTE-013, 10 μM) (Tocris Bioscience), with the pharmacological blocker of S1PR1 and S1PR3 (VPC 23019, 10 μM) (Tocris Bioscience), or with the pharmacological blocker of S1PR1, 3, 4, and 5 (FTY720, 10 μM) (Tocris Bioscience). Then soluble Nogo-A Delta 20 (at 1 μM) or Nogo-A Delta 21 (at 1 μM) was added and lamellipodia and filopodia were imaged for 1h. The displacements (x) of the nanopillar tips induced by whole endothelial cells (for experiments with coated Nogo-A proteins) or by single endothelial filopodia (for experiments with soluble Nogo-A proteins) were measured using the program Diatrack (Powerful Particle Tracking, Semasopht). Finally, corresponding traction forces were calculated using the formula F=k*x, where k represents the spring constant of the nanopillars, 78.76 nN/μm.

In assay [2] the test system is GBM MVEC. The assay is described as follows: Mean traction forces of adhered cells on nanopillars coated with Nogo-A proteins. Format: cell-based, human. Conditions: protein coated on nanopillars. As to the method: as §2, §3
To quantitatively address the effects of coated Nogo-A proteins on adhesion between endothelial cells (GBM MVEC) and nanopillars, nanopillars were coated with Nogo-A Delta 20, Nogo-A Delta 21, or Fibronectin (blank condition).
To calculate the total force applied by endothelial cells (GBM MVEC) on the substrates, the average displacement of 800-5000 nanopillars per single cell was used. Single GBM MVEC were imaged for a total time of 20 min, with a scanning ratio of 30 s per frame. For each condition, at least three individual GBM MVEC were analyzed.
To address the role of Nogo-A receptors, endothelial cells were pre-incubated for 30 min before seeding with the pharmacological blocker of S1PR2 (JTE-013, 10 μM) (Tocris Bioscience), with the pharmacological blocker of S1PR1 and S1PR3 (VPC 23019, 10 μM) (Tocris Bioscience), or with the pharmacological blocker of S1PR1, 3, 4, and 5 (FTY720, 10 μM) (Tocris Bioscience).
as §4

For assay [3], the system named is VEGFR2. Kind of assay: VEGFR2 phosphorylation at Tyr1175 in HUVECs, immunofluorescent antibody staining. Format: cell-based. As to conditions: protein 1 μM. As to the method: as §1
Assay [4] has as its system GBM MVEC. The assay is described as follows: Time-lapse imaging of lamellipodia and filopodia retraction on nanopillars, soluble Nogo-A proteins. Format: cell-based, human. As to conditions: soluble protein 1 μM, over 30 min to 1 h. As to the method: as §2, §3
To quantitatively address the acute effects of soluble Nogo-A proteins on GBM MVEC retraction, Dil-labeled endothelial cells on nanopillars coated with 25 μg*ml^−1 human Fibronectin were treated 30 min after cell seeding with soluble Nogo-A Delta 20 and Nogo-A Delta 21 at 1 μM. Single GBM MVEC were then imaged for a total time of 1.5 h, with a scanning ratio of 30 s per frame. The nanopillar displacements were recorded as sequence images when the GBM MVEC applied forces on the nanopillar surface. For each condition, at least three individual GBM MVEC were analyzed. […] Finally, corresponding traction forces were calculated using the formula F=k*x, where k represents the spring constant of the nanopillars, 78.76 nN/μm.

The test system of assay [5] is endothelial tip cells within the glioblastoma. The assay is described as follows: Injection by osmotic minipumps in a mouse model of glioblastoma, endothelial tip cell count. Conditions: 20 days post-injection, versus scrambled Nogo-A Delta 20. Format: in vivo. The source says:
Coronal brain sections (40 μm) of glioblastoma-bearing mice (20 days post-injection, 20D-PI) were perfused with FITC Lectin (green) to visualize perfused blood vessels and stained for Endomucin to visualize blood vessels including endothelial tip cells (red) and the general nuclear marker DAPI (blue). The boxed areas are enlarged in d-f and in g-i. (a-f). Endomucin^+ endothelial tip cells (red, arrows) and FITC Lectin^+ established blood vessel (green) (d-f) are shown within the glioblastoma. Endomucin seems to be specific for blood vessels within the glioblastoma (red) (as compared to Endomucin^− blood vessels in the surrounding normal brain; green). (d,f,g,i) Note the nicely visualized Endomucin^+ endothelial tip cells including filopodial protrusions (red, arrows) (g) within the glioblastoma. (j) Injection of Nogo-A Delta 20 decreases the mean number of endothelial tip cells within the glioblastoma, showing its inhibitory effect on mouse glioblastoma blood vessels.
GL261 glioma cell implantation into adult (two months old) C57BL/6 animals was performed as previously described (Aulwurm et al., Int J Cancer 2006;118, 1728-1735; Biollaz et al., Eur J Immunol 2009;39, 1323-1333j). Briefly, a total of 2×10^4 GL261 cells were inoculated through a borehole placed 1 mm lateral and 2 mm dorsal to the bregma at 3 mm depth using a Hamilton syringe. […]

B1: Nogo-A Delta 20: Nogo-A specific inhibitory domain, 182 aa; human aa 567-748 (SEQ ID NO 002), rat aa 544-725 (SEQ ID NO 001) (protein, UniProt Q9NQC3 567-748, looked up, fragment)
chain: TGTKIAYETKMDLVQTSEVMQESLYPAAQLCPSFEESEATPSPVLPDIVMEAPLNSAVPSAGASVIQPSSSPLEASSVNYESIKHEPENPPPYEEAMSVSLKKVSGIKEEIKEPENINAALQETEAPYISIACDLIKETKLSAEPAPDFSDYSEMAKVEQPVPDHSELVEDSSPDSEPVDLF
Turning to B1, in the assay with VEGFR2 [1] (with VEGF-A), the “amount of phosphoVEGFR2 protein” value is reported as “reduced” and the “total amount of VEGFR2 protein” value was “reduced”. The “VEGFR2 phosphorylation, protein alone” value with VEGFR2 [1] (without VEGF-A) is given as “did not induce”. Moreover, in the assay with GBM MVEC filopodia, the “peak traction forces of filopodia on the underlying nanopillars” value was around 10 nN. Further, in the assay on GBM MVEC [2], the “mean traction forces and pillar displacements induced by adhered cells (change)” value is “reduced”; the “mean traction forces on the underlying nanopillars” value was around 12 nN. Also, the “phosphoVEGFR2 after 30 min” value in the assay on VEGFR2 [3] (with VEGF-A for 30 min) was “no phosphoVEGFR2 was detectable”. The “VEGFR2 phosphorylation at Tyr1175 compared to Nogo-A Delta 21 conditions” value with VEGFR2 [3] (with VEGF-A, peak after 15 min) is “considerably lower”. Moreover, the “retraction of GBM MVEC lamellipodia and filopodia” value with GBM MVEC [4] is on record as “retraction”. Further, in assay [5], the “mean number of endothelial tip cells within the glioblastoma” value is given as “decreases”.

Values taken from patent US20180015144A1, “AGONISTS OF THE NOGO-A S1PR PATHWAY FOR THE TREATMENT OF GLIOBLASTOMA” (UNIVERSITAT ZURICH, priority 2015, published 2018).
